The record followed here is patent US20210047402A1 (TENEOBIO, published 2021).

Sequences and labels used below:
T1: human CD22 (human, UniProt P20273 20-687, limits assumed)
T1 construct: also called SIGLEC-2; human CD22 protein
T1 sequence (looked up): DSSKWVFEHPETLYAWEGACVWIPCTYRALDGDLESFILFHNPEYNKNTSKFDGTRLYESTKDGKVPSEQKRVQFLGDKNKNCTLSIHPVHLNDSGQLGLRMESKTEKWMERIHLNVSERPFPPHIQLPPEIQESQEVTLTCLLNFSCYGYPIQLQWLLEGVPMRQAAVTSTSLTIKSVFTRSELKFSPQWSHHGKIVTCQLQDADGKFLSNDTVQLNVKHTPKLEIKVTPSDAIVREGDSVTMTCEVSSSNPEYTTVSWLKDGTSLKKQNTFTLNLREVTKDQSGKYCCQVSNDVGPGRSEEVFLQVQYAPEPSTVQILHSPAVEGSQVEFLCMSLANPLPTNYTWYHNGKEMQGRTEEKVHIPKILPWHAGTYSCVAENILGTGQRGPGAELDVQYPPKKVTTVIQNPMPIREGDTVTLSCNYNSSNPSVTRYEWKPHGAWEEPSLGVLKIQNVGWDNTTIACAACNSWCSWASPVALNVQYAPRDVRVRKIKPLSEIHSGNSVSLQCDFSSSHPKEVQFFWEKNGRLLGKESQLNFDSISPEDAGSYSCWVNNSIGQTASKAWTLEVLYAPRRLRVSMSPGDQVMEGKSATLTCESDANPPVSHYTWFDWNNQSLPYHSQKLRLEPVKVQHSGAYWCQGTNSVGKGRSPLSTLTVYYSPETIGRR

B1: anti-CD22 heavy chain-only antibody Clone ID 335311 (antibody, V domains shown)
VH: QLQLQESGPGLVKPSETLSLTCAVYGGSFSGYYWGWIRQPPGKGLEWIGHIYYSGATYYNPSLKNRVTISVDTSRNQFSLNLSSVTAADTAVYYCTREDSSSWRSRGQGTLVTVSS
notes: Heavy chain-only antibody (UniAb), no light chain
B2: anti-CD22 heavy chain-only antibody Clone ID 335333 (antibody, V domains shown)
VH: QLQLQESGPGLVKPSETLSLTCTVSGGSISSSSYYWGWIRQPPGKGLEWIGSIYYSGSTYYNPSLKSRVTISVDTSKNQFSLKLSSVTAADTAVYYCAREDSSSWRSRGQGTLVTVSS
notes: as for B1
B3: anti-CD22 heavy chain-only antibody Clone ID 335179 (antibody, V domains shown)
VH: B2 VH with I39F, Q41H, E48D, Y54H, K77R, K83N, A98T, E100D, S104N
notes: as for B1

Numbering of substitutions follows the chain as printed.

This experiment has as its target T1, human CD22. In words: ELISA protein and cell-binding assays. For orientation: ELISA stands for enzyme-linked immunosorbent assay.
For B1, the binding result is given as “binds”.
Under B2 stands “binds”; under B3, “binds”.
